The target in test [1] is HLA-A*68:02. Kind of test: IEDB peptide-MHC binding, cellular MHC/competitive/fluorescence; ≥ and ≤ were set here for values at or beyond the usual limits of such assays.
The target of test [2] is HLA-A*02:01. Kind of test: IEDB peptide-MHC binding, purified MHC/competitive/radioactivity; ≥ and ≤ were set here for values at or beyond the usual limits of such assays.
For test [3], the target named is HLA-A*02:02. The test is described as above.
For test [4], the target named is HLA-A*02:03. Described as above.
Test [5] has as its target HLA-A*02:06. The description is as above.
The mark [6] stands for this setting: source organism: Hepacivirus hominis.
Setting [7] is: source organism: Mammarenavirus choriomeningitidis.
The mark [8] stands for this setting: source organism: Vaccinia virus WR.
The mark [9] stands for this setting: source organism: Influenza A virus.
The mark [10] stands for this setting: source organism: Mammarenavirus machupoense.
[11] abbreviates: source organism: Mammarenavirus whitewaterense.

The IC50 is the concentration that gives 50% inhibition. For the sequence YLYGIGSAVV, the IC50 in test [1] (setting [6]) amounted to 5120 nM; in test [2] (setting [6]), 39 nM; in test [3] (setting [6]) it was 12 nM; in test [4] (setting [6]), 3.5 nM; in test [5] (setting [6]), 285 nM.

As for FMLNVSYLC, the IC50 in test [1] (setting [7]) was 8480 nM; in test [2] (setting [7]) it was 1050 nM; in test [3] (setting [7]), 196 nM; in test [4] (setting [7]), 1260 nM; in test [5] (setting [7]) it was 932 nM.

Turning to SLVKESMASL, the IC50 in test [1] (setting [8]) was found to be 7960 nM; in test [2] (setting [8]), 2360 nM; in test [3] (setting [8]), 994 nM; in test [4] (setting [8]), 7.8 nM; in test [5] (setting [8]), 1430 nM.

On to CLTVPNITI, for which the IC50 in test [1] (setting [8]) came out at 8000 nM; in test [2] (setting [8]), 1190 nM; in test [3] (setting [8]) it was 96 nM; in test [4] (setting [8]), 75 nM; in test [5] (setting [8]), 1660 nM.

For FLARKGIDT, the IC50 in test [1] (setting [8]) was no less than 70000 nM; in test [2] (setting [8]), 1420 nM; in test [3] (setting [8]), 1020 nM; in test [4] (setting [8]) it was 318 nM; in test [5] (setting [8]), 3040 nM.

With KLLIVLTCI, the IC50 was found to be 5470 nM in test [1] (source organism: SARS-CoV1); 229 nM in test [2] (source organism: SARS-CoV1); 260 nM in test [3] (source organism: SARS-CoV1); 1940 nM in test [4] (source organism: SARS-CoV1); 449 nM in test [5] (source organism: SARS-CoV1).

VMFNGVTFST: the IC50 in test [1] (source organism: SARS-CoV1) was determined as 13700 nM; in test [2] (source organism: SARS-CoV1), 8.5 nM; in test [3] (source organism: SARS-CoV1), 0.69 nM; in test [4] (source organism: SARS-CoV1), 75 nM; in test [5] (source organism: SARS-CoV1), 131 nM.

Take RLIQNSITI: the IC50 in test [1] (setting [9]) is no less than 70000 nM; in test [2] (setting [9]), 84 nM; in test [3] (setting [9]) it was 137 nM; in test [4] (setting [9]), 28 nM; in test [5] (setting [9]) it was 1330 nM.

As to VTYNIKPVIV, the IC50 in test [1] (setting [8]) was 8340 nM; in test [2] (setting [8]), 3000 nM; in test [3] (setting [8]) it was 4920 nM; in test [4] (setting [8]), 116 nM; in test [5] (setting [8]), 358 nM.

With SLVSKHWELT, the IC50 came to 16300 nM in test [1] (setting [8]); 96 nM in test [2] (setting [8]); 409 nM in test [3] (setting [8]); 35 nM in test [4] (setting [8]); 2680 nM in test [5] (setting [8]).

For the sequence FMLCLLLLS, the IC50 in test [1] (setting [6]) was no less than 70000 nM; in test [2] (setting [6]), 2730 nM; in test [3] (setting [6]), 997 nM; in test [4] (setting [6]), 1450 nM; in test [5] (setting [6]), 2100 nM.

Regarding LLPLTSLVI, the IC50 in test [1] (setting [8]) is no less than 70000 nM; in test [2] (setting [8]), 1180 nM; in test [3] (setting [8]), 2390 nM; in test [4] (setting [8]), 621 nM; in test [5] (setting [8]), 1430 nM.

Take VLAGYGAGI: the IC50 in test [1] (setting [6]) is 14700 nM; in test [2] (setting [6]), 408 nM; in test [3] (setting [6]), 11 nM; in test [4] (setting [6]) it was 18 nM; in test [5] (setting [6]), 2500 nM.

With FMEEEIKAEM, the IC50 in test [1] (setting [8]) is 16800 nM; in test [2] (setting [8]), 86 nM; in test [3] (setting [8]), 1030 nM; in test [4] (setting [8]) it was 3070 nM; in test [5] (setting [8]), 865 nM.

Consider GIADIRDKYM, for which the IC50 in test [1] (setting [8]) is 5930 nM; in test [2] (setting [8]), 1100 nM; in test [3] (setting [8]), 0.69 nM; in test [4] (setting [8]), 48 nM; in test [5] (setting [8]) it was 1780 nM.

As to LLDCIMYQS, the IC50 was found to be 11300 nM in test [1] (setting [10]); 1100 nM in test [2] (setting [10]); 1540 nM in test [3] (setting [10]); 2270 nM in test [4] (setting [10]); 3280 nM in test [5] (setting [10]).

On to ALALEQYGI, for which the IC50 in test [1] (setting [8]) was determined as 40400 nM; in test [2] (setting [8]), 30 nM; in test [3] (setting [8]), 0.69 nM; in test [4] (setting [8]), 40 nM; in test [5] (setting [8]) it was 548 nM.

As to LILSNKLLYA, the IC50 in test [1] (setting [8]) is 9790 nM; in test [2] (setting [8]) it was 169 nM; in test [3] (setting [8]), 468 nM; in test [4] (setting [8]), 122 nM; in test [5] (setting [8]), 36 nM.

Take ALTDVEKRIL: the IC50 in test [1] (setting [8]) came out at 13800 nM; in test [2] (setting [8]), 429 nM; in test [3] (setting [8]) it was 97 nM; in test [4] (setting [8]), 127 nM; in test [5] (setting [8]), 934 nM.

Take AIYVFCISL: the IC50 in test [1] (source organism: SARS-CoV1) amounted to 5470 nM; in test [2] (source organism: SARS-CoV1), 119 nM; in test [3] (source organism: SARS-CoV1) it was 143 nM; in test [4] (source organism: SARS-CoV1) it was 201 nM; in test [5] (source organism: SARS-CoV1) it was 48 nM.

Regarding KLPTWLGAA, the IC50 in test [1] (setting [8]) is no less than 70000 nM; in test [2] (setting [8]) it was 207 nM; in test [3] (setting [8]), 499 nM; in test [4] (setting [8]), 8 nM; in test [5] (setting [8]) it was 9.4 nM.

As to GLFDINVIGL, the IC50 in test [1] (setting [8]) stood at 7080 nM; in test [2] (setting [8]), 13 nM; in test [3] (setting [8]) it was 0.16 nM; in test [4] (setting [8]) it was 1.4 nM; in test [5] (setting [8]) it was 240 nM.

For VQFSILNNPV, the IC50 in test [1] (setting [8]) came out at 39700 nM; in test [2] (setting [8]) it was 1910 nM; in test [3] (setting [8]), 131 nM; in test [4] (setting [8]) it was 369 nM; in test [5] (setting [8]) it was 186 nM.

For FLLRGPFEAS, the IC50 in test [1] (setting [11]) is 38900 nM; in test [2] (setting [11]) it was 109 nM; in test [3] (setting [11]), 27 nM; in test [4] (setting [11]) it was 84 nM; in test [5] (setting [11]), 70 nM.

For ALLSCIRNA, the IC50 was no less than 70000 nM in test [1] (setting [8]); 23 nM in test [2] (setting [8]); 120 nM in test [3] (setting [8]); 6.2 nM in test [4] (setting [8]); 77 nM in test [5] (setting [8]).

Take TLFGRGVIDT: the IC50 turned out to be 5730 nM in test [1] (setting [8]); 130 nM in test [2] (setting [8]); 199 nM in test [3] (setting [8]); 96 nM in test [4] (setting [8]); 3310 nM in test [5] (setting [8]).

VMHINSPFKV: the IC50 is 6270 nM in test [1] (setting [8]); 13 nM in test [2] (setting [8]); 60 nM in test [3] (setting [8]); 2.5 nM in test [4] (setting [8]); 393 nM in test [5] (setting [8]).

With LVFLILCFT, the 50% inhibitory concentration (IC50) in test [1] (source organism: SARS-CoV1) is 6680 nM; in test [2] (source organism: SARS-CoV1), 507 nM; in test [3] (source organism: SARS-CoV1), 2490 nM; in test [4] (source organism: SARS-CoV1), 1850 nM; in test [5] (source organism: SARS-CoV1), 1370 nM.

On to LLYFILFFV, for which the IC50 in test [1] (setting [6]) is 23000 nM; in test [2] (setting [6]) it was 164 nM; in test [3] (setting [6]), 227 nM; in test [4] (setting [6]), 323 nM; in test [5] (setting [6]) it was 504 nM.

For the sequence LMLKATLLCV, the IC50 worked out at 8860 nM in test [1] (source organism: SARS-CoV1); 19 nM in test [2] (source organism: SARS-CoV1); 3.4 nM in test [3] (source organism: SARS-CoV1); 21 nM in test [4] (source organism: SARS-CoV1); 63 nM in test [5] (source organism: SARS-CoV1).

Consider ALLADKFPV, for which the IC50 stood at 12900 nM in test [1] (source organism: SARS-CoV1); 1.7 nM in test [2] (source organism: SARS-CoV1); 29 nM in test [3] (source organism: SARS-CoV1); 604 nM in test [4] (source organism: SARS-CoV1); 23 nM in test [5] (source organism: SARS-CoV1).

For the sequence SALMTLDDLA, the IC50 worked out at 19100 nM in test [1] (setting [8]); 249 nM in test [2] (setting [8]); 210 nM in test [3] (setting [8]); 2320 nM in test [4] (setting [8]); 193 nM in test [5] (setting [8]).

As to KLLSTSNVIT, the IC50 is no less than 70000 nM in test [1] (setting [8]); 1120 nM in test [2] (setting [8]); 2260 nM in test [3] (setting [8]); 3350 nM in test [4] (setting [8]); 1550 nM in test [5] (setting [8]).

As for CLLTDTIESA, the IC50 in test [1] (setting [8]) was 22200 nM; in test [2] (setting [8]), 188 nM; in test [3] (setting [8]), 53 nM; in test [4] (setting [8]) it was 102 nM; in test [5] (setting [8]), 92 nM.

For the sequence ALDGVLSTFV, the IC50 in test [1] (source organism: SARS-CoV1) came to 5200 nM; in test [2] (source organism: SARS-CoV1), 28 nM; in test [3] (source organism: SARS-CoV1), 3.3 nM; in test [4] (source organism: SARS-CoV1), 28 nM; in test [5] (source organism: SARS-CoV1), 140 nM.

As for YLLGLSAIM, the IC50 amounted to 12100 nM in test [1] (source organism: SARS-CoV1); 1.1 nM in test [2] (source organism: SARS-CoV1); 1.7 nM in test [3] (source organism: SARS-CoV1); 37 nM in test [4] (source organism: SARS-CoV1); 3.2 nM in test [5] (source organism: SARS-CoV1).
